Experimental data reported in the nanobody polyreactivity screen of Harvey et al. (2022).

Assay: yeast display, Sf9 membrane polyspecificity reagent, FACS + sequencing; frameworks hold sequencing errors
In short: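 Sorting gates, low and high (top ~1%), were placed on anti-HA fluorescence to track expression and on streptavidin fluorescence to track reagent binding. A clone's polyreactivity label is taken from the gate it came out of. The reagent was 10% biotinylated, detergent-solubilized Sf9 membrane, applied for 1 hour at 4 °C to galactose-induced yeast display cells.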

Row | Sequence | polyreactivity (PSR sort gate)
1 | QVQLVESGGGLVQAGGSLRLSCAASGGTLRGNAMGWYRQAPGKERELVAAISGSAGRTYYADSVKGRFTISRDNAKNTVYLQMTSLKPVDTAVYYCAASRRVVKMDYWGQGTQVTVSS | high polyreactivity
2 | QVQLVESGGGLVQAGGSLRLSCAASGGTLYLYAMGWYRQAPGKERELVAAISYNGGSTYAESVKGRFTISRDNAKNTVYLQKNSLKPEDTAVYYCAADRSPRGLGGYWGQGTQVTVSS | low polyreactivity
3 | QVQLVESGGGLVQAGGSLRLSCAASGGTPQNAMGWYRQAPGKDRELVAAISKRGGSTYYADSVKGRFTISRDNAKNTGYLQMNSLKPEDTAVYDCAAVSQRAQHTSEYDYWGQGTQVTVSS | high polyreactivity
4 | QVQLVESGGGLVQAGGSLRLSCAASGGTQRYYAMGWYRQAPGKERDFVASISRSGGSTYYADTVKGRFTISRDNAKNTVYLQMNSLKPEDTAVYYCAAYWSPGYTTRRGYWGQGTQVTVSS | high polyreactivity
5 | QVQLVESGGGLVQAGGSLRLSCAASGGTQRYYVMGSYRQAPGKERELVAAISWSGDSTYYADSVKGRFTISRDNAKNTVYLQMNSLKPEDTAVYYCAATYYLTYYYGQANHCYDYWGQGTQVTVSS | low polyreactivity
6 | QVQLVESGGGLVQAGGSLRLSCAASGGTSIYNDMGWYRQAPGKERELVAAISWSGGSTYYADSVKGRFTISRDNAKNTVYLQMNSLKPEDTAVYYCATQGFYKDYSRYDYWGQVTQVTVSS | low polyreactivity
7 | QVQLVESGGGLVQAGGSLRLSCAASGGTSQRYVMGWYRQAPGKERELVAAITSTGSTYYADSVKWRFTISRDNAKNTVYLQMNSLKPEDTAVYYCATGRLRIYKSYYWGQGTQVTVSS | high polyreactivity
8 | QVQLVESGGGLVQAGGSLRLSCAASGGTYRSNAMGWYRQAPGKERELVAASTNYADSVKGRFTISRDNAKNTVYLQMNSLKPEDTAVYYCAAGPTDSQTGMDYWGQGTQVTVSS | low polyreactivity
9 | QVQLVESGGGLVQAGGSLRLSCAASGHIFLGNVMGWYRQAPGKERELVAAISKRGGRTYYADSVKGRFTISRDNAKNTVYLQMNSLKPEDTAVYYCAAVIDSREEYWGQGTQVTVSS | high polyreactivity
10 | QVQLVESGGGLVQAGGSLRLSCAASGHSFFYYTMGWYRQAPGKERELVAGITIGGSTNYADSVKGRFTISRDNAKNTVYLQMNSLKPEETAVYYCKKRYVVSRKYDYWGQGTQVTVSS | low polyreactivity
11 | QVQLVESGGGLVQAGGSLRLSCAASGHTFRFYTMGWSRQAPGKEREFVAAIRRRTGSTYYADSVKGRFTISRDNAKNTVYLQMNSLKPEDTAVYYCNAVGDARYNYWGQGTQVTVSS | high polyreactivity
12 | QVQLVESGGGLVQAGGSLRLSCAASGIFAWNAMGWYRQAPGKERELVAAISWSGGSTYADSVKGRFTISRDNAKNTVYLQMNSLKPEDTAVYYCAKVSSLTSKSDYSGQGTQVTVSS | low polyreactivity
13 | QVQLVESGGGLVQAGGSLRLSCAASGIFFLYGMGWYIQAPGKQRELVAVISTRDTTDYADSVKGRFTISRDKSKNTVNIQMNSLKPEDTAVYFCAATARSRSYSWSKLNYWGQGTQVTLSS | low polyreactivity
14 | QVQLVESGGGLVQAGGSLRLSCAASGIFGGYAMGWYIQAPRKERELVAAITSGGSTYYADSVKGRFTISRDNAKNTVYLQMNSLKPEDTAVYYCAARPRGTYSRLGYWGQGTQVTVSS | high polyreactivity
15 | QVQLVESGGGLVQAGGSLRLSCAASGIFGSYAMGWYRQAPGKERELVAAISSGGSTYYADSVKGRFTISRDNAKNTVYLQMNSLKPEDTAVYYCAKRYGRAYRSYYWGQGTQVTVSS | high polyreactivity
16 | QVQLVESGGGLVQAGGSLRLSCAASGIFLKYAKGWYRPAPGKERELVPAIRKRGGSTYYADSVKGRFTISRDNAKNTVYLQMNSLKPEDTAVYYCATRYTYHPGSAGFDYWGQGTQVTVSS | high polyreactivity
17 | QVQLVESGGGLVQAGGSLRLSCAASGIFRRYAMGWYREAPGKERELVAAISSNGGSTYYADSVKGRFTISRDNAKNTVYLQMNSLKPEDTAVYYCNADVYVWNYKYYSWGQGTQVTVSS | high polyreactivity
18 | QVQLVESGGGLVQAGGSLRLSCAASGIFRYYAMGWYRQAPGKERELVASITGGGSTYYADSVKGRFTISRDNAKMTVYLQLNSLKPEDTAVYYCNTAGAYYRWTPYYYWGQGTQVTVSS | high polyreactivity
19 | QVQLVESGGGLVQAGGSLRLSCAASGIFRYYAMGWYRQAPGKERELVATITRSSGSTYYADSVKGRFTISRDNAKNTVYLQMNSLKPEDTAVYYCAARGPYFNRGTRYDYWGQGTQVTVSS | high polyreactivity
20 | QVQLVESGGGLVQAGGSLRLSCAASGIFVSYAMGWYRQAPGKDRAVVAAISSSGGSTYYADSVKGRFTISRDNAKNTVYLQMNSLKPEDTAVYYGAARLVKSQTTVQGYYWGQGTQVTVSS | high polyreactivity
21 | QVQLVESGGGLVQAGGSLRLSCAASGIICVKYTMGWYRQAPGKERELVAAISRSGGSTYYADSVKGRFTISRDNAKNTVYLQMNSLKPEDTAVYYCNAVSRKVYPGPMDYWGHGTQVTVSS | high polyreactivity

Row | Sequence | polyreactivity (PSR sort gate)
22 | QVQLVESGGGLVQAGGSLRLSCAASGIICYENTMGWYRQAPGKERELVAAINSGGSTYYADSVKGRFTISRDNAKNTVYLQMNSLKPEDTAVYYCAADDYSGLYYSSTYRYEYWGQGTQVTVSS | low polyreactivity
23 | QVQLVESGGGLVQAGGSLRLSCAASGIIFAANAMAWYRQAPGKERELVAAISKNGGITYYADSVKGRFTISRDNAKNTVYLQMNSLIPEDTAVYDCSARWRQTRRYYYWGQGTKVTVSS | high polyreactivity
24 | QVQLVESGGGLVQAGGSLRLSCAASGIIFADYAMGWSRQAPGKERELVAAISSGDSTYYADSVKGRFTMSLDNAKNTVYLQMNSLKPEDTAVYYSAARLFRNKYRIAKMNYWGQGTQVTVSS | high polyreactivity
25 | QVQLVESGGGLVQAGGSLRLSCAASGIIFAIYAMGWYRQAPGKESELVAAITWRGGSTYYADSVKGRFTISRDNAKNTVYLQRNSLKPEDTAVYYCDAVTKSLYGYDYWGQGSQVTVSS | low polyreactivity
26 | QVQLVESGGGLVQAGGSLRLSCAASGIIFAKYAMGWYRQAPGKERELVAGISRSGGRTYYADSVKGRFTISRDNAKNTVYLQMNSLKPEDTAVYYCAAVPHGTGGWWKYDYWGQGTQVTVSS | high polyreactivity
27 | QVQLVESGGGLVQAGGSLRLSCAASGIIFANNDMGWSRQAPGKERELVAVITFSDGSTYYADSVKGRFTISRDNAKNTVYLQMNSLKPEDTAVYYCATRIRSYYYWGQGTQVTVSS | high polyreactivity
28 | QVQLVESGGGLVQAGGSLRLSCAASGIIFAQYVMGWYRQAPGKERQLVAAIRTSGGRTYYADSVKGRFTISRDHAKITVYLQMISLKPVDTAVYYCAAYGKPTFRSVDYWGQGTQVTVSS | high polyreactivity
29 | QVQLVESGGGLVQAGGSLRLSCAASGIIFASNAMGWYRQAPGKERELVAAISRSGGRTYYADSVKGRFTISRDNAKNTVYLQMNSLKPEDTAVYYCNAVQFGATAYDYWGQGTQVTVSS | high polyreactivity
30 | QVQLVESGGGLVQAGGSLRLSCAASGIIFASYALGWYRQAPGKERELVAAISGGGSTYYADSVKGRFTISRDNAKNTVYLQMNSLKPEDTAVYYCNADVTLRLWAYYYYRYNYWGQGTQVTVSS | low polyreactivity
31 | QVQLVESGGGLVQAGGSLRLSCAASGIIFAWYVKGWYRQAPGKERELVAAITQSGGSTFYADSVKWRFTISRDNAKNTVYLQMNSLKPEDTAVYYCNREYWGRGYYRVRGEYDYWGQGTQVTVSS | low polyreactivity
32 | QVQLVESGGGLVQAGGSLRLSCAASGIIFAYYAMGWYRQAPGKERELVAAISWSGTSTYYADSVKGRFTISRDTATNTVYLQMNSLKPEDTAVYYCNAYGLYSDMDYWGQGTQVTVSS | high polyreactivity
33 | QVQLVESGGGLVQAGGSLRLSCAASGIIFAYYAMGWYRQAPGKERELVAAMNRSGGTTYYADSVKGRFTISRDNAKNTLYLQMNSLKPEDTAVYYCNALTTWRYRYDYWGQGTQVTVSS | high polyreactivity
34 | QVQLVESGGGLVQAGGSLRLSCAASGIIFAYYAMGWYRQAPGKERELVATITSGSNTNYADSVKGRFTISRDNAQNTVYLQMNSLKPEDTAVYYWGQGTQVTVSS | low polyreactivity
35 | QVQLVESGGGLVQAGGSLRLSCAASGIIFAYYAMGWYRQAPGKERELVGTNYADSVKGRFTISRDNAKNTVYLQMNSLKPEDTAVYYCNTEWTSLSKSSLGGRYDHWGQGTQVTVSS | low polyreactivity
36 | QVQLVESGGGLVQAGGSLRLSCAASGIIFDDYAMGWYRQAPGKERELVAAISRGGSTYYADSVKGRFTISRDNAKNTVYIQMNSLKPEDTAVYYCAAVVYTIYARYGYCGQGTQVTVSS | high polyreactivity
37 | QVQLVESGGGLVQAGGSLRLSCAASGIIFDDYAMGWYRQAPGKERELVAVISSSGGNTYYADSVKGRFTISRDNAKNSVYLQMNSLKPEDTAVYYCAATYYYKSIYWFEYLGQGTQVTVSS | low polyreactivity
38 | QVQLVESGGGLVQAGGSLRLSCAASGIIFDGNVMGWYRQAPGKEREFVASISISGGSTSYADSVKGRFTISRDNAKNTVYLQMNSLKPEDTAVYYCNTDVGYGRVWRWRYHGDYWGQGTQVTVSS | low polyreactivity
39 | QVQLVESGGGLVQAGGSLRLSCAASGIIFDGYTMGWYRQAPGTERELVAAITTSGTSTYYADSVKGRFTISRDNAKNTVYLQMNSLKPEDTAVYYCNAVRRGLPVVGAYDYWGQGTQVTVSS | high polyreactivity
40 | QVQLVESGGGLVQAGGSLRLSCAASGIIFDSYAMGWYRQAPGKERELVAAITSDSGRTYYADSVKGRFTISRDNAKKTVYLQMNSLKPEYTAVYYFAKRWDGPYDYWGQGTQVTVSS | low polyreactivity
41 | QVQLVESGGGLVQAGGSLRLSCAASGIIFDSYVMGWYRQAPGKERELVAAISFRGGSTYYADSVKGRFTISRDNAKNTVYLQMNSLKPEDTAVYYCAAEGRGYTEYYWGQGTQVTVSS | high polyreactivity
